In PMC4873975 (2016):
Numbering of substitutions follows the chain as printed. Numbers in names are those of the source. One block for each binder: values may come before it.

Legend:
[1] = molecular target: T1, FcɛRIα (recombinant, soluble) (human, UniProt P12319 26-205); assay: SPR; insect-derived IgE-Fc3-4
T1 chain: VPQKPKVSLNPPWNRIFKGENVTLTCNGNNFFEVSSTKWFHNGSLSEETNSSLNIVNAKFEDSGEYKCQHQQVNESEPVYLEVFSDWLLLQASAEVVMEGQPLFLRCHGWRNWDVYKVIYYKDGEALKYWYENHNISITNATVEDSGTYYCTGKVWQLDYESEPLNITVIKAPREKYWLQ

[2] = molecular target: T1, FcɛRIα (recombinant, soluble); assay: SPR; insect-derived IgE-Fc3-4
[3] = molecular target: T1, FcɛRIα (recombinant, soluble); assay: SPR; mammalian-derived IgE-Fc3-4
[4] = molecular target: T1, FcɛRIα (recombinant, soluble); assay: SPR; mammalian-derived IgE-Fc3-4
[5] = molecular target: T1, FcɛRIα (recombinant, soluble); assay: SPR; mammalian-derived
[6] = molecular target: T1, FcɛRIα (recombinant, soluble); assay: SPR; mammalian-derived

koff [1]: 0.000946 s⁻¹
Kd [2]: 0.66 nM
koff [3]: 0.00102 s⁻¹
Kd [4]: 0.933 nM
B1: IgE-Fc3–4 (wild type) (domain or fragment)
chain: CADSNPRGVSAYLSRPSPFDLFIRKSPTITCLVVDLAPSKGTVNLTWSRASGKPVNHSTRKEEKQRNGTLTVTSTLPVGTRDWIEGETYQCRVTHPHLPRALMRSTTKTSGPRAAPEVYAFATPEWPGSRDKRTLACLIQNFMPEDISVQWLHNEVQLPDARHSTTQPRKTKGSGFFVFSRLEVTRAEWEQKDEFICRAVHEAASPSQTVQRAVSVNPGK

koff [5]: 0.000773 s⁻¹
Kd [6]: 2.26 nM
B2: IgE-R419N-Fc3–4 (domain or fragment)
chain: B1 chain with R92N
modifications: additional N-linked glycan at the site made by R419N (NVT)
